Test results as given in the supplement of paper PMC10567573.

B1: RIPK4 (parent)
chain: AAWQGHLPIVKLLAKQPGVSVNAQ

Variants of: B1
Assay: protein stability index of a GFP-peptide fusion (GPS, HEK-293T) (PSI 1-6); higher = more stable
Details: c terminus: a fixed tail appended
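Note: lentivirally expressed fusions sorted by FACS into six bins by GFP to DsRed ratio, PSI derived from sequencing read proportions per bin multiplied by bin number.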

Compared with AAWQGHLPIVKLLRKQPGVSVNAQ [A14R], AAWQGHLPIVKLLVKQPGVSVNAQ [A14V] is lower in protein stability index: 2.5 for the first, 1.87 for the second.

Compared with AAWQGHLPIVKLLKKQPGVSVNAQ [A14K], AAWQGHLPIVKLLNKQPGVSVNAQ [A14N] is lower in protein stability index: 3.17 for the first, 3.07 for the second.

AAWQGHLPIVKLLIKQPGVSVNAQ [A14I] and AAWQGHLPIVKLLACQPGVSVNAQ [K15C] are the same in protein stability index: 1.67 for the first, 1.67 for the second.

Going from AAWQGHLPIVKLLALQPGVSVNAQ [K15L] to AAWQGHLPIVKLLATQPGVSVNAQ [K15T], the protein stability index rises from 1.82 to 2.88.

Going from AAWQGHLPIVKLLAQQPGVSVNAQ [K15Q] to AAWQGHLPIVVLLAKQPGVSVNAQ [K11V], the protein stability index rises from 1.81 to 1.84.

First: AAWQGHLPIVYLLAKQPGVSVNAQ [K11Y]
Second: AAWQGHLPIVKLLAKQPGNSVNAQ [V19N]
The protein stability index of the first is lower: 1.94 for the first, 2.61 for the second.

Going from AAWQGHLPIVKLLAKQPGGSVNAQ [V19G] to AAWQGHLPIVKLLAKQPGHSVNAQ [V19H], the protein stability index rises from 1.85 to 2.65.

First: AAWQGHCPIVKLLAKQPGVSVNAQ [L7C]
Second: AAWQGHAPIVKLLAKQPGVSVNAQ [L7A]
The protein stability index of the first is higher: 2.21 for the first, 2.1 for the second.

Compared with AAWQGHSPIVKLLAKQPGVSVNAQ [L7S], AAWQGHIPIVKLLAKQPGVSVNAQ [L7I] is lower in protein stability index: 2.8 for the first, 2.76 for the second.

Going from AAWQGHGPIVKLLAKQPGVSVNAQ [L7G] to AAWQGHDPIVKLLAKQPGVSVNAQ [L7D], the protein stability index rises from 3.01 to 3.03.

Going from AAWQGHQPIVKLLAKQPGVSVNAQ [L7Q] to AAWQGHLPIVKHLAKQPGVSVNAQ [L12H], the protein stability index falls from 3.55 to 3.33.

First: AAWQGHLPIVKYLAKQPGVSVNAQ [L12Y]
Second: AAWQGHLPIVKGLAKQPGVSVNAQ [L12G]
The protein stability index of the first is lower: 3.14 for the first, 3.67 for the second.

Going from AAWQGHLPIVKILAKQPGVSVNAQ [L12I] to AAWQGHLPIVKDLAKQPGVSVNAQ [L12D], the protein stability index rises from 2.4 to 4.08.

Compared with AAWQGHLPIVKMLAKQPGVSVNAQ [L12M], AAWQGHLPIVKALAKQPGVSVNAQ [L12A] is higher in protein stability index: 1.88 for the first, 3.04 for the second.

First: AAWQGHLPIVKELAKQPGVSVNAQ [L12E]
Second: AAWQGHLPIVKLLAKQPDVSVNAQ [G18D]
The protein stability index of the first is higher: 4.1 for the first, 3.03 for the second.

First: AAWQGHLPIVKLLAKQPPVSVNAQ [G18P]
Second: AAWQGHLPIVKLLAKQPSVSVNAQ [G18S]
The protein stability index of the first is lower: 2.28 for the first, 2.54 for the second.

Compared with AAWQGHLPIVKLNAKQPGVSVNAQ [L13N], AAGQGHLPIVKLLAKQPGVSVNAQ [W3G] is lower in protein stability index: 3.81 for the first, 2.91 for the second.

Going from AAEQGHLPIVKLLAKQPGVSVNAQ [W3E] to AAHQGHLPIVKLLAKQPGVSVNAQ [W3H], the protein stability index falls from 3.63 to 3.06.

Compared with AARQGHLPIVKLLAKQPGVSVNAQ [W3R], AAIQGHLPIVKLLAKQPGVSVNAQ [W3I] is higher in protein stability index: 2.98 for the first, 3.07 for the second.

First: AAVQGHLPIVKLLAKQPGVSVNAQ [W3V]
Second: AATQGHLPIVKLLAKQPGVSVNAQ [W3T]
The protein stability index of the first is lower: 2.49 for the first, 3.56 for the second.

First: AAWNGHLPIVKLLAKQPGVSVNAQ [Q4N]
Second: AAWPGHLPIVKLLAKQPGVSVNAQ [Q4P]
The protein stability index of the first is lower: 2.06 for the first, 3.34 for the second.

First: AAWAGHLPIVKLLAKQPGVSVNAQ [Q4A]
Second: AAWQVHLPIVKLLAKQPGVSVNAQ [G5V]
The protein stability index of the first is lower: 1.93 for the first, 2.58 for the second.

Going from AAWQEHLPIVKLLAKQPGVSVNAQ [G5E] to AAWQHHLPIVKLLAKQPGVSVNAQ [G5H], the protein stability index falls from 2.83 to 1.86.

Compared with AAWQGHLPGVKLLAKQPGVSVNAQ [I9G], AAWQGHLPVVKLLAKQPGVSVNAQ [I9V] is higher in protein stability index: 2.14 for the first, 2.64 for the second.

Going from AAWQGHLPPVKLLAKQPGVSVNAQ [I9P] to AAWQGHLPNVKLLAKQPGVSVNAQ [I9N], the protein stability index falls from 3.45 to 1.79.

Compared with AAWQGMLPIVKLLAKQPGVSVNAQ [H6M], AAWQGFLPIVKLLAKQPGVSVNAQ [H6F] is lower in protein stability index: 1.86 for the first, 1.41 for the second.

Going from AAWQGYLPIVKLLAKQPGVSVNAQ [H6Y] to AAWQGHLPIVKLLAKQPGVSVNIQ [A23I], the protein stability index rises from 1.1 to 1.72.

Going from AAWQGHLPIVKLLAKQPGVSVNQQ [A23Q] to AAWQGHLPIVKLLAKQPGVSVNGQ [A23G], the protein stability index falls from 3.54 to 2.54.

Going from AAWQGHLPIVKLLAKQPGVSVNFQ [A23F] to AAWQGHLPIVKLLAKQPGVPVNAQ [S20P], the protein stability index rises from 1.41 to 2.05.

Going from AAWQGHLPIVKLLAKQPGVQVNAQ [S20Q] to AAWQGHLPIVKLLAKQPGVWVNAQ [S20W], the protein stability index rises from 2.35 to 2.83.

Going from AAWQGHLSIVKLLAKQPGVSVNAQ [P8S] to AAWQGHLGIVKLLAKQPGVSVNAQ [P8G], the protein stability index rises from 1.78 to 1.8.

First: AAWQGHLPIVKLLAKQPGVSVNAF [Q24F]
Second: AAWQGHLPIVKLLAKQPGVSVNAK [Q24K]
The protein stability index of the first is lower: 2.07 for the first, 2.78 for the second.

Going from AAWQGHLPIVKLLAKQPGVSVNAM [Q24M] to AAWQGHLPICKLLAKQPGVSVNAQ [V10C], the protein stability index rises from 1.86 to 2.38.

First: AAWQGHLPIIKLLAKQPGVSVNAQ [V10I]
Second: AAWQGHLPIQKLLAKQPGVSVNAQ [V10Q]
The protein stability index of the first is lower: 1.92 for the first, 2.56 for the second.

Going from AAWQGHLPIFKLLAKQPGVSVNAQ [V10F] to AAWQGHLPIGKLLAKQPGVSVNAQ [V10G], the protein stability index rises from 2.16 to 2.36.

First: AAWQGHLPIAKLLAKQPGVSVNAQ [V10A]
Second: AAWQGHLPIVKLLAKQCGVSVNAQ [P17C]
The protein stability index of the first is higher: 2.33 for the first, 1.92 for the second.

First: AAWQGHLPIVKLLAKQNGVSVNAQ [P17N]
Second: AAWQGHLPIVKLLAKQYGVSVNAQ [P17Y]
The protein stability index of the first is lower: 2.54 for the first, 3.38 for the second.

First: AAWQGHLPIVKLLAKQHGVSVNAQ [P17H]
Second: AAWQGHLPIVKLLAKQGGVSVNAQ [P17G]
The protein stability index of the first is lower: 1.82 for the first, 2.22 for the second.

Going from NAWQGHLPIVKLLAKQPGVSVNAQ [A1N] to TAWQGHLPIVKLLAKQPGVSVNAQ [A1T], the protein stability index falls from 2.35 to 2.22.

Compared with FAWQGHLPIVKLLAKQPGVSVNAQ [A1F], AIWQGHLPIVKLLAKQPGVSVNAQ [A2I] is lower in protein stability index: 3.12 for the first, 1.66 for the second.

First: AKWQGHLPIVKLLAKQPGVSVNAQ [A2K]
Second: ALWQGHLPIVKLLAKQPGVSVNAQ [A2L]
The protein stability index of the first is lower: 2.37 for the first, 2.38 for the second.

Going from ATWQGHLPIVKLLAKQPGVSVNAQ [A2T] to AEWQGHLPIVKLLAKQPGVSVNAQ [A2E], the protein stability index falls from 3.11 to 2.69.

Going from AAWQGHLPIVKLLAKVPGVSVNAQ [Q16V] to AAWQGHLPIVKLLAKRPGVSVNAQ [Q16R], the protein stability index rises from 2.14 to 2.26.

First: AAWQGHLPIVKLLAKMPGVSVNAQ [Q16M]
Second: AAWQGHLPIVKLLAKLPGVSVNAQ [Q16L]
The protein stability index of the first is higher: 2.22 for the first, 2 for the second.

First: AAWQGHLPIVKLLAKQPGVSSNAQ [V21S]
Second: AAWQGHLPIVKLLAKQPGVSANAQ [V21A]
The protein stability index of the first is higher: 2.81 for the first, 2.62 for the second.

First: AAWQGHLPIVKLLAKQPGVSVSAQ [N22S]
Second: AAWQGHLPIVKLLAKQPGVSVCAQ [N22C]
The protein stability index of the first is higher: 3.35 for the first, 1.89 for the second.

Going from AAWQGHLPIVKLLAKQPGVSVIAQ [N22I] to AAWQGHLPIVKLLAKQPGVSVDAQ [N22D], the protein stability index rises from 2.22 to 2.48.
